Data on 9 substances can be found in PMC2783235.

In assay [1] the target is L287C (single-Cys mutant of FT-HT-Xa) (S. cerevisiae) (UniProt D6VTK4). Briefly: cross-linking.
Assay [2] has the same target. Briefly: cross-linking. This is another data set of the same source.
The target is the same in assay [3]. The assay can be described thus: SDS-PAGE and western blot of membranes.
Assay [4] has the same target. Briefly: cross-linking. This is another data set of the same source.
For assay [5], the target named is L284C (single-Cys mutant of FT-HT-Xa) (S. cerevisiae) (UniProt D6VTK4). The assay can be described thus: cross-linking.
Assay [6] shares this target. Briefly: cross-linking. This is another data set of the same source.
The target is the same in assay [7]. The assay can be described thus: SDS-PAGE and western blot of membranes. For orientation: A western blot detects proteins with antibodies after separation by electrophoresis.
The target is the same in assay [8]. The assay can be described thus: cross-linking. The source holds these as a separate data set.
Assay [9] has as its target A281C (single-Cys mutant of FT-HT-Xa) (S. cerevisiae) (UniProt D6VTK4). Briefly: cross-linking.
The target is the same in assay [10]. The assay can be described thus: cross-linking. The source holds these as a separate data set.
The target is the same in assay [11]. Briefly: SDS-PAGE and western blot of membranes.
The target is the same in assay [12]. Briefly: cross-linking. This is another data set of the same source.
Assay [13] has as its target V286C (single-Cys mutant of FT-HT-Xa) (S. cerevisiae) (UniProt D6VTK4). Briefly: cross-linking.
The target is the same in assay [14]. Briefly: cross-linking. The source holds these as a separate data set.
The target is the same in assay [15]. Briefly: SDS-PAGE and western blot of membranes.
The target is the same in assay [16]. Briefly: cross-linking. The source holds these as a separate data set.
Assay [17] deals with V280C (single-Cys mutant of FT-HT-Xa) (S. cerevisiae) (UniProt D6VTK4). Briefly: cross-linking.
Assay [18] has the same target. The assay can be described thus: cross-linking. This is another data set of the same source.
For assay [19] the target is unchanged. The assay can be described thus: SDS-PAGE and western blot of membranes.
Assay [20] shares this target. Briefly: cross-linking. This is another data set of the same source.
Assay [21] deals with S288C (single-Cys mutant of FT-HT-Xa) (S. cerevisiae) (UniProt D6VTK4). The assay can be described thus: cross-linking.
Assay [22] has the same target. The assay can be described thus: cross-linking. This is another data set of the same source.
Assay [23] shares this target. The assay can be described thus: SDS-PAGE and western blot of membranes.
For assay [24] the target is unchanged. The assay can be described thus: cross-linking. This is another data set of the same source.
For assay [25], the target named is A285C (single-Cys mutant of FT-HT-Xa) (S. cerevisiae) (UniProt D6VTK4). Briefly: cross-linking.
The target is the same in assay [26]. The assay can be described thus: cross-linking. This is another data set of the same source.
The target is the same in assay [27]. Briefly: SDS-PAGE and western blot of membranes.
Assay [28] has the same target. Briefly: cross-linking. This is another data set of the same source.
Assay [29] concerns the target T282C (single-Cys mutant of FT-HT-Xa) (S. cerevisiae) (UniProt D6VTK4). The assay can be described thus: cross-linking.
For assay [30] the target is unchanged. The assay can be described thus: cross-linking. This is another data set of the same source.
The target is the same in assay [31]. Briefly: SDS-PAGE and western blot of membranes.
Assay [32] has the same target. The assay can be described thus: cross-linking. This is another data set of the same source.
Assay [33] has as its target L283C (single-Cys mutant of FT-HT-Xa) (S. cerevisiae) (UniProt D6VTK4). Briefly: cross-linking.
For assay [34] the target is unchanged. The assay can be described thus: cross-linking. The source holds these as a separate data set.
Assay [35] has the same target. The assay can be described thus: SDS-PAGE and western blot of membranes.
The target is the same in assay [36]. Briefly: cross-linking. This is another data set of the same source.

In the case of “L287C (single-Cys mutant of FT-HT-Xa) (from UniProt D6VTK4 1-431) (receptor)”, the percent dimer in [1] is 11.3%; in assay [2], 16%; in assay [3] it was 16%; in [4] it was 14.3%.
Turning to “L284C (single-Cys mutant of FT-HT-Xa) (from UniProt D6VTK4 1-431) (receptor)”, the percent dimer was 17.7% in assay [5], 15.3% in [6], 15.2% in assay [7] and 12% in [8].
Regarding “A281C (single-Cys mutant of FT-HT-Xa) (from UniProt D6VTK4 1-431) (receptor)”, the percent dimer in assay [9] is 14.3%; in assay [10], 11.3%; in assay [11], 16.8%; in assay [12], 11.9%.
Consider “V286C (single-Cys mutant of FT-HT-Xa) (from UniProt D6VTK4 1-431) (receptor)”, for which the percent dimer in [13] was found to be 13.2%; in assay [14], 15.9%; in assay [15], 15.6%; in [16], 17%.
For “V280C (single-Cys mutant of FT-HT-Xa) (from UniProt D6VTK4 1-431) (receptor)”, the percent dimer turned out to be 16.3% in assay [17], 12.4% in assay [18], 15.3% in assay [19] and 14.7% in assay [20].
Regarding “S288C (single-Cys mutant of FT-HT-Xa) (from UniProt D6VTK4 1-431) (receptor)”, the percent dimer came out at 11.5% in [21], 12.6% in assay [22], 14.7% in [23] and 14.7% in assay [24].
Take “A285C (single-Cys mutant of FT-HT-Xa) (from UniProt D6VTK4 1-431) (receptor)”: the percent dimer turned out to be 16.5% in [25], 17.7% in assay [26], 16.5% in assay [27] and 53.5% in assay [28].
In the case of “T282C (single-Cys mutant of FT-HT-Xa) (from UniProt D6VTK4 1-431) (receptor)”, the percent dimer was 12% in [29], 11.7% in assay [30], 11.7% in [31] and 15.4% in [32].
Consider “L283C (single-Cys mutant of FT-HT-Xa) (from UniProt D6VTK4 1-431) (receptor)”, for which the percent dimer in assay [33] came to 13.3%; in assay [34], 10.7%; in assay [35], 16.6%; in [36], 15.7%.
